Test results: the supplement of paper PMC10126150
± gives the standard deviation of the averaged measurements.

System: ATP
Test: switch fluorescence ratio, 500 uM ATP over buffer (Cy3 cluster intensity, sum of 5 cycles each) (fold (ratio)); higher = stronger signal-on switching upon ATP binding; sequences stand for … in TCGTCGGCAGCGTCAGATGTGTATAAGAGACAGTTTTTTTTTTTTTTTTTTTTTTTTT…TC
Conditions: aptamer strand: ATP DNA aptamer (quencher-CACCTGGGGGAGTATTGCGGAGGAAGG + anchor), 100 nM annealed; ATP concentration: 500 uM
Summary of the method: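 Values give the fluorescence ratio for each switch-domain sequence, averaged from per-cluster ratios of summed target-cycle to summed buffer-cycle Cy3 intensity. The Cy3-labelled switching-strand clusters sat on a modified Illumina MiSeq flow-cell, were annealed to 100 nM quencher-labelled ATP aptamer, and were imaged in selection buffer, then after 15 min with 500 uM ATP at 22 °C. Five cycles ran with NaOH stripping and re-annealing between them, and clusters outside 100-1000 RFU were excluded.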
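Also: ATP exposure 15 min at 22 °C before imaging.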

| Sequence | switch fluorescence ratio |
| --- | --- |
| CGCCGGGGGG | 1.04 ± 0.046 |
| CGCCTCGTAA | 1.191 ± 0.01 |
| CGCCTTGGTT | 1.02 ± 0.013 |
| CGCCTTTTAT | 0.98204 ± 0.00038 |
| CGCGACGAGT | 0.9823 ± 0.0053 |
| CGCGAGGGTT | 1.008 ± 0.007 |
| CGCGATATGG | 1.49 ± 0.17 |
| CGCGATTTAA | 1.056 ± 0.0088 |
| CGCGCAGTCG | 1.032 ± 0.003 |
| CGCGCTGACT | 1.05 ± 0.017 |
| CGCGGAGATG | 1.01 ± 0.035 |
| CGCGGAGGGA | 1.02 ± 0.0082 |
| CGCGGCGGTC | 1.02 ± 0.014 |
| CGCGGCGTTC | 1.023 ± 0.0057 |
| CGCGGGAACA | 1.022 ± 0.005 |
| CGCGGGACTT | 2.01 ± 1.4 |
| CGCGGGAGTA | 1.02 ± 0.018 |
| CGCGGGGGTT | 1.03 ± 0.035 |
| CGCGGGGTAA | 1.04 ± 0.011 |
| CGCGGGTTGG | 1.02 ± 0.017 |
| CGCGGGTTTT | 1.0416 ± 0.00069 |
| CGCGGTCATA | 1.023 ± 0.01 |
| CGCGTCCGTC | 1.03 ± 0.056 |

| Sequence | switch fluorescence ratio |
| --- | --- |
| CGCGTGGATC | 1.06 ± 0.047 |
| CGCGTGGGGC | 1.06 ± 0.015 |
| CGCGTGTGTG | 1.02 ± 0.038 |
| CGCGTTAGGG | 1.03 ± 0.011 |
| CGCGTTCCGT | 1.03 ± 0.019 |
| CGCTAAAGTG | 1.06 ± 0.086 |
| CGCTACTATT | 1.12 ± 0.087 |
| CGCTAGACAC | 1.49 ± 0.054 |
| CGCTAGGGAA | 1.03 ± 0.045 |
| CGCTAGGGTA | 1.04 ± 0.036 |
| CGCTATATCG | 1.09 ± 0.081 |
| CGCTATGATG | 0.984 ± 0.028 |
| CGCTATTGGG | 1.046 ± 0.0086 |
| CGCTGAGCAC | 1.18 ± 0.059 |
| CGCTGAGGTA | 1 ± 0.03 |
| CGCTGAGTAT | 0.995 ± 0.021 |
| CGCTGATGCT | 1.0852 ± 0.00031 |
| CGCTGATTAG | 1.041 ± 0.0092 |
| CGCTGCACGG | 1.07 ± 0.038 |
| CGCTGCTGGT | 0.998 ± 0.031 |
| CGCTGGAACT | 1.0166 ± 0.00022 |
| CGCTGGAGGG | 1.02 ± 0.093 |
| CGCTGGGGGT | 1.16 ± 0.2 |

| Sequence | switch fluorescence ratio |
| --- | --- |
| CGCTGTGGAA | 1.04 ± 0.044 |
| CGCTGTGGAG | 1.01 ± 0.012 |
| CGCTGTGGGA | 0.973 ± 0.053 |
| CGCTTAAAAA | 1.02 ± 0.079 |
| CGCTTCGGGG | 0.9735 ± 0.0082 |
| CGCTTGAGTC | 1.025 ± 0.0062 |
| CGCTTTACCG | 1 ± 0.051 |
| CGCTTTATGA | 1.07 ± 0.024 |
| CGCTTTATGT | 1.06 ± 0.18 |
| CGCTTTCACC | 1.218 ± 0.0019 |
| CGCTTTTTTT | 1.01 ± 0.025 |
| CGGAAAAAAG | 1.018 ± 0.007 |
| CGGAAACTAG | 1.022 ± 0.0038 |
| CGGAAATAAA | 0.968 ± 0.025 |
| CGGAACAATG | 1.3945 ± 0.00059 |
| CGGAACGTGC | 1.04 ± 0.045 |
| CGGAAGATAT | 1.039 ± 0.00018 |
| CGGAAGGCCA | 0.9836 ± 0.0044 |
| CGGAAGTGCC | 1.016 ± 0.0014 |
| CGGAAGTTGA | 1.02 ± 0.067 |
| CGGACATGGA | 1.011 ± 0.0084 |
| CGGACCATAT | 1.11 ± 0.017 |
| CGGACCATTC | 1.27 ± 0.032 |

| Sequence | switch fluorescence ratio |
| --- | --- |
| CGGACTAACG | 1.08 ± 0.053 |
| CGGACTTTG | 0.999 ± 0.026 |
| CGGACTTTTC | 1.042 ± 0.0018 |
| CGGAGCAGTT | 2.46 ± 0.41 |
| CGGAGGATGC | 1.31 ± 0.019 |
| CGGAGGGAAT | 2.91 ± 2.3 |
| CGGAGGGGGA | 0.973 ± 0.019 |
| CGGAGGTTTG | 1.39 ± 0.62 |
| CGGAGGTTTT | 0.993 ± 0.049 |
| CGGAGTAAGA | 2.53 ± 0.15 |
| CGGAGTACGG | 1.06 ± 0.075 |
| CGGAGTCCGG | 1.04 ± 0.059 |
| CGGAGTGGTT | 1 ± 0.017 |
| CGGAGTTAAT | 1.66 ± 0.048 |
| CGGATAGAGC | 0.9951 ± 0.0085 |
| CGGATAGTGG | 0.994 ± 0.014 |
| CGGATCGTGG | 0.987 ± 0.021 |
| CGGATCGTTG | 0.9655 ± 0.0084 |
| CGGATCTTTG | 0.977 ± 0.0033 |
| CGGATGAGGG | 1.01 ± 0.044 |
| CGGATGAGTA | 0.988 ± 0.029 |
| CGGATGGGGA | 0.993 ± 0.028 |
| CGGATGGGGT | 0.973 ± 0.038 |

| Sequence | switch fluorescence ratio |
| --- | --- |
| CGGATGTAAC | 1.02 ± 0.024 |
| CGGATGTGCA | 0.981 ± 0.018 |
| CGGATTAAAC | 1.04 ± 0.022 |
| CGGATTTATA | 0.979 ± 0.019 |
| CGGCAATGGG | 1.77 ± 0.15 |
| CGGCACAATA | 1.78 ± 0.041 |
| CGGCACAGCC | 1.05 ± 0.057 |
| CGGCACCCGT | 0.9653 ± 0.0078 |
| CGGCAGGCAG | 1.04 ± 0.13 |
| CGGCAGGGGT | 1.11 ± 0.064 |
| CGGCATTTTT | 1.03 ± 0.036 |
| CGGCCCGCCC | 1.27 ± 0.35 |
| CGGCCGGTTG | 1 ± 0.019 |
| CGGCCTGGCG | 0.969 ± 0.016 |
| CGGCGAAGAT | 1.01 ± 0.025 |
| CGGCGCATTA | 2.86 ± 0.55 |
| CGGCGCGCTG | 0.997 ± 0.034 |
| CGGCGCTAGG | 1.05 ± 0.045 |
| CGGCGCTTCA | 1.063 ± 0.0061 |
| CGGCGCTTGG | 1.09 ± 0.035 |
| CGGCGGAACG | 0.966 ± 0.031 |
| CGGCGGATTC | 1.03 ± 0.019 |
| CGGCGGCAGG | 0.9881 ± 0.0068 |

| Sequence | switch fluorescence ratio |
| --- | --- |
| CGGCGGTCGG | 0.9808 ± 0.0076 |
| CGGCGTTCGC | 0.964 ± 0.049 |
| CGGCGTTGCT | 0.981 ± 0.045 |
| CGGCTACGGG | 0.995 ± 0.046 |
| CGGCTAGGTC | 1.03 ± 0.012 |
| CGGCTAGTGG | 0.961 ± 0.032 |
| CGGCTCGATA | 0.976 ± 0.02 |
| CGGCTCTTAG | 0.99 ± 0.011 |
| CGGCTGGAGT | 1.001 ± 0.0043 |
| CGGCTGGGGC | 1.02 ± 0.015 |
| CGGCTGGGGG | 0.976 ± 0.014 |
| CGGCTTATAT | 1.06 ± 0.041 |
| CGGCTTATGG | 1.03 ± 0.07 |
| CGGGAAAATG | 0.988 ± 0.012 |
| CGGGAAAATT | 1.02 ± 0.025 |
| CGGGAAATCC | 1.042 ± 0.0085 |
| CGGGAACTGG | 0.97 ± 0.023 |
| CGGGAAGGTT | 1.08 ± 0.16 |
| CGGGACCCCC | 1.141 ± 0.011 |
| CGGGACTGTT | 1.02 ± 0.059 |
| CGGGAGAATA | 0.989 ± 0.013 |
| CGGGAGAGAC | 1.013 ± 0.0025 |
| CGGGAGTCAG | 1 ± 0.021 |

| Sequence | switch fluorescence ratio |
| --- | --- |
| CGGGAGTTAG | 1.02 ± 0.021 |
| CGGGATAATC | 1.07 ± 0.052 |
| CGGGATATGG | 1.03 ± 0.045 |
| CGGGATCCAC | 1.01 ± 0.034 |
| CGGGATCTGG | 0.977 ± 0.015 |
| CGGGATGCCC | 1.01 ± 0.047 |
| CGGGATGGGG | 1 ± 0.041 |
| CGGGATGTTG | 1.02 ± 0.035 |
| CGGGATTCTG | 1 ± 0.031 |
| CGGGCAGCGT | 0.986 ± 0.0076 |
| CGGGCCATCG | 0.9939 ± 0.0063 |
| CGGGCCGAGG | 1.02 ± 0.018 |
| CGGGCCGGGT | 0.976 ± 0.031 |
| CGGGCCTTGG | 1.026 ± 0.0016 |
| CGGGCGGGGT | 1.03 ± 0.051 |
| CGGGCTACTA | 1.05 ± 0.016 |
| CGGGCTAGGG | 0.9979 ± 0.0049 |
| CGGGCTATCC | 1.03 ± 0.03 |
| CGGGCTATTC | 1.22 ± 0.034 |
